This assay concerns the target recombinant mouse nidogen-2 (ELISA) (mouse) (UniProt O88322). Put plainly: ELISA.
Sequence of UniProt O88322 (O88322 31-1403): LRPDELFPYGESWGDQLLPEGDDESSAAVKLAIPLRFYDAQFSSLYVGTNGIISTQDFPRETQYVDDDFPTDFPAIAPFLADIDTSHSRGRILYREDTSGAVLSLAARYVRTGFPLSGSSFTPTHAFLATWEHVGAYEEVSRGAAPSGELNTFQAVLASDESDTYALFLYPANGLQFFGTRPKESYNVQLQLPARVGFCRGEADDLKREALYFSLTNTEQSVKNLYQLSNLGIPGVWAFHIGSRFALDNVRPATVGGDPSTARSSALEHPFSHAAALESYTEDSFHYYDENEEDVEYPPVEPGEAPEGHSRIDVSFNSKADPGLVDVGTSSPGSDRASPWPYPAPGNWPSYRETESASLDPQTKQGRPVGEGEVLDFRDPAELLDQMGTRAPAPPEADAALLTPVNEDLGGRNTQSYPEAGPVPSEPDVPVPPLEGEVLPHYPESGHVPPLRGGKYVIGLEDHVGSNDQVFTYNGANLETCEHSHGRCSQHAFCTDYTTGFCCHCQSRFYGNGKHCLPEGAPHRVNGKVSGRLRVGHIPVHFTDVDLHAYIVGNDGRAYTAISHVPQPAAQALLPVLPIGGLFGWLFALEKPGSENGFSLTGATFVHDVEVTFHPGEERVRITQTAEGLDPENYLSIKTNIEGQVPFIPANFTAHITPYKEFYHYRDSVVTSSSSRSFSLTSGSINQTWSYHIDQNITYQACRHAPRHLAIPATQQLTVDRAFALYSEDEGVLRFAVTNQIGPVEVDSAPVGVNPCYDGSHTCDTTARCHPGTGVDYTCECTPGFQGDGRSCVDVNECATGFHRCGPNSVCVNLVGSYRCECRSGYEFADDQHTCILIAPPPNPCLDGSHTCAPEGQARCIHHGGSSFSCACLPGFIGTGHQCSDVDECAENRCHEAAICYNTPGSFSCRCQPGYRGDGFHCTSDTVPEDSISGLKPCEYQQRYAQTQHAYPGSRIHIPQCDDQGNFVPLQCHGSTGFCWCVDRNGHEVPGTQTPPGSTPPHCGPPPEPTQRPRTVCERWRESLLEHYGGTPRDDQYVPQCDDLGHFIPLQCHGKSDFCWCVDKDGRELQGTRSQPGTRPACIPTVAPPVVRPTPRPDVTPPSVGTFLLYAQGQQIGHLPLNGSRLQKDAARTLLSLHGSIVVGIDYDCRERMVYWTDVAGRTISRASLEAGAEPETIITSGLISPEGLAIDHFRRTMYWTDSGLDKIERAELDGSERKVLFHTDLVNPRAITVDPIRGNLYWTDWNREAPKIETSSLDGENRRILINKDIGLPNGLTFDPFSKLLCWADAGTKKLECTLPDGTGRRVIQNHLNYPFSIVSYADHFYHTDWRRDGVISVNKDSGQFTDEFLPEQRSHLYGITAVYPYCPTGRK

As to “LAR FNIII2-FLAG (purified soluble 2nd FNIII domain of LAR) (domain or fragment)”, the Kd worked out at 2000 nM.

Take “LAR FNIII4-FLAG (purified soluble 4th FNIII domain of LAR) (domain or fragment)”: the Kd is 1900 nM.

Regarding “LAR FNIII5-FLAG (purified soluble 5th FNIII domain of LAR) (domain or fragment)”, the Kd stood at 1400 nM.

On to “LAR FNIII7-FLAG (purified soluble 7th FNIII domain of LAR) (domain or fragment)”, for which the Kd amounted to 2500 nM.

The record behind these values is publication doi:10.1101/2023.02.03.526966.
